Measured values taken from US20130012432A1 (Novo Nordisk, published 2013).
Positions of bridges follow the written chain, without caps; N, C: chain ends. Non-standard residues stand in square brackets, D forms with d. Groups on a side chain read outwards from the residue. Primed or numbered codes have the meaning given here. *: point of attachment. X5 = NH(2-(2-(2-(17-carboxyheptadecanoylamino)ethoxy)ethoxy)ethyl), O=C(O)CCCCCCCCCCCCCCCCC(=O)NCCOCCOCCN*; X6 = (2-(2-(17-carboxyheptadecanoylamino)ethoxy)ethoxy)acetyl, O=C(O)CCCCCCCCCCCCCCCCC(=O)NCCOCCOCC(=O)*; X3 = (2-(2-(15-carboxypentadecanoylamino)ethoxy)ethoxy)acetyl, O=C(O)CCCCCCCCCCCCCCC(=O)NCCOCCOCC(=O)*; X4 = (2-(2-(16-carboxyhexadecanoylamino)ethoxy)ethoxy)acetyl, O=C(O)CCCCCCCCCCCCCCCC(=O)NCCOCCOCC(=O)*; biscarboxymethyl = Lys(biscarboxymethyl) = Nepsilon-bis(carboxymethyl)-L-lysine; Palmitoyl(16-(5-tetrazolyl)) = O=C(CCCCCCCCCCCCCCCc1nnn[nH]1)*; biscarboxymethyl(3) = Nepsilon-bis(carboxymethyl) on Lys; Lys(CH2CO2H)2 = N[C@@H](CCCCN(CC(=O)O)CC(=O)O)C(=O)O; C17 diacid = O=C(O)CCCCCCCCCCCCCCCC(=O)*; Hyp = O=C(O)[C@@H]1C[C@@H](O)CN1; Orn = NCCC[C@H](N)C(=O)O; Dab = NCC[C@H](N)C(=O)O; Dap = NC[C@H](N)C(=O)O; AEEA = NCCOCCOCC(=O)O

Biological target: T1, human MC4 receptor (human, UniProt P32245 1-332)
T1 construct: whole, on cells; Assayed as membranes of BHK cells stably expressing the receptor; also called melanocortin receptor subtype 4; melanocortin receptor 4
Experiment: 125I-NDP-α-MSH displacement, BHK-human MC4 membranes (Assay V);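 further: Filter-retained radioactivity read by gamma counting, with affinity obtained through non-linear regression fitting of the binding curves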
Method: The membranes were prepared from frozen or fresh cells that were homogenized in 20 mM HEPES pH 7.1, 5 mM MgCl₂ and 1 mg/ml bacitracin and centrifuged at 15000 rpm at 4° C., 10 min in a Sorvall RC 5B plus, SS-34 rotor. The supernatant was discarded, and the pellets were re-suspended in buffer, homogenized and centrifuged two more times. The final pellets were resuspended in the buffer mentioned above, and the protein concentration was measured and adjusted with buffer to 14 to 17 mg/ml and the membrane preparation were kept at −80° C. until assay. The assay was run directly on a dilution of this cell membrane suspension, without any further preparation. The BHK cell membranes are kept at −80° C. until assay, and the assay is run directly on a dilution of this cell membrane suspension, without further preparation. The suspension is diluted to give maximally 10% specific binding, i.e. to approx. 50-100 fold dilution. […] Test compounds were dissolved in DMSO and diluted in binding buffer. Radiolabelled ligand and membranes were diluted in binding buffer. The incubation was stopped by dilution with 2×100 μl ice-cold 0.9% NaCl. The radioactivity retained on the filters was counted using a Cobra II auto gamma counter.
The data were analysed by non-linear regression analysis of binding curves, using the Windows™ program GraphPad™ Prism (GraphPad Software, USA).

T1 sequence (P32245 whole entry): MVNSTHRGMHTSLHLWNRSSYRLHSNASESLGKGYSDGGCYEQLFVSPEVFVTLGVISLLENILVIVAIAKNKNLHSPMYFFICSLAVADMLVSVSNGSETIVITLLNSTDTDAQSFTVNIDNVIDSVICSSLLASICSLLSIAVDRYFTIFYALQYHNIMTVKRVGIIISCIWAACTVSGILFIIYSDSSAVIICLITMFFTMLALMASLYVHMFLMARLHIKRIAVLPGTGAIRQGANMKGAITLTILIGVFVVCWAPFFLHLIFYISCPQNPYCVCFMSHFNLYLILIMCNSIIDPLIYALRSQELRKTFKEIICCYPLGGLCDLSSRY

B1: Ac-c[Lys-His-D-Phe-Arg-Trp-Asp]-Pro-Ser-His-Glu-Lys(biscarboxymethyl)-Lys({2-[2-(16-carboxyhexadecanoylamino)ethoxy]ethoxy}acetyl)-NH2 (peptide)
peptide: Ac-KH[dF]RWDPSHE[Lys(CH2CO2H)2]K([AEEA-C17 diacid])-NH2
modifications: lactam 1-6
SMILES: CC(=O)N[C@H]1CCCCNC(=O)C[C@@H](C(=O)N2CCC[C@H]2C(=O)N[C@@H](CO)C(=O)N[C@@H](Cc2c[nH]cn2)C(=O)N[C@@H](CCC(=O)O)C(=O)N[C@@H](CCCCN(CC(=O)O)CC(=O)O)C(=O)N[C@@H](CCCCNC(=O)COCCOCCNC(=O)CCCCCCCCCCCCCCCC(=O)O)C(N)=O)NC(=O)[C@H](Cc2c[nH]c3ccccc23)NC(=O)[C@H](CCCNC(=N)N)NC(=O)[C@@H](Cc2ccccc2)NC(=O)[C@H](Cc2c[nH]cn2)NC1=O
Question: For B1, which Ki is on record?
Answer: Its Ki is 25 nM.

B2: Ac-c[Lys-His-D-Phe-Arg-Trp-Glu]-Pro-Pro-His-Glu-Lys(biscarboxymethyl)-Lys({2-[2-(16-carboxyhexadecanoylamino)ethoxy]ethoxy}acetyl)-NH2 (peptide)
peptide: Ac-KH[dF]RWEPPHE[Lys(CH2CO2H)2]K([AEEA-C17 diacid])-NH2
modifications: lactam 1-6
SMILES: CC(=O)N[C@H]1CCCCNC(=O)CC[C@@H](C(=O)N2CCC[C@H]2C(=O)N2CCC[C@H]2C(=O)N[C@@H](Cc2c[nH]cn2)C(=O)N[C@@H](CCC(=O)O)C(=O)N[C@@H](CCCCN(CC(=O)O)CC(=O)O)C(=O)N[C@@H](CCCCNC(=O)COCCOCCNC(=O)CCCCCCCCCCCCCCCC(=O)O)C(N)=O)NC(=O)[C@H](Cc2c[nH]c3ccccc23)NC(=O)[C@H](CCCNC(=N)N)NC(=O)[C@@H](Cc2ccccc2)NC(=O)[C@H](Cc2c[nH]cn2)NC1=O
Question: With B2 as the binder, how does the Ki read?
Answer: The Ki was 348 nM.

Question: With Ac-[Dab]H[dF]RWDPPREK(biscarboxymethyl(3))SS-X5 (lactam 1-6) as the binder, how does the Ki read?
Answer: The Ki was 12.5 nM.

B3: Ac-c[Lys-His-D-Phe-Arg-Trp-Asp]-Pro-Pro-Arg-Asp-Lys(biscarboxymethyl)-Lys[(2-{2-[16-(tetrazol-5-yl)hexadecanoylamino]ethoxy}ethoxy)acetyl]-NH2 (peptide)
peptide: Ac-KH[dF]RWDPPRD[Lys(CH2CO2H)2]K([AEEA-Palmitoyl(16-(5-tetrazolyl))])-NH2
modifications: lactam 1-6
SMILES: CC(=O)N[C@H]1CCCCNC(=O)C[C@@H](C(=O)N2CCC[C@H]2C(=O)N2CCC[C@H]2C(=O)N[C@@H](CCCNC(=N)N)C(=O)N[C@@H](CC(=O)O)C(=O)N[C@@H](CCCCN(CC(=O)O)CC(=O)O)C(=O)N[C@@H](CCCCNC(=O)COCCOCCNC(=O)CCCCCCCCCCCCCCCc2nnn[nH]2)C(N)=O)NC(=O)[C@H](Cc2c[nH]c3ccccc23)NC(=O)[C@H](CCCNC(=N)N)NC(=O)[C@@H](Cc2ccccc2)NC(=O)[C@H](Cc2c[nH]cn2)NC1=O
Question: With B3 as the binder, how does the Ki read?
Answer: Its Ki is 3.87 nM.

B4: Ac-c[Lys-His-D-Phe-Arg-Trp-Glu]-Pro-Pro-Arg-Asp-Lys(biscarboxymethyl)-Lys[(2-{2-[16-(tetrazol-5-yl)hexadecanoylamino]ethoxy}ethoxy)acetyl]-NH2 (peptide)
peptide: Ac-KH[dF]RWEPPRD[Lys(CH2CO2H)2]K([AEEA-Palmitoyl(16-(5-tetrazolyl))])-NH2
modifications: lactam 1-6
SMILES: CC(=O)N[C@H]1CCCCNC(=O)CC[C@@H](C(=O)N2CCC[C@H]2C(=O)N2CCC[C@H]2C(=O)N[C@@H](CCCNC(=N)N)C(=O)N[C@@H](CC(=O)O)C(=O)N[C@@H](CCCCN(CC(=O)O)CC(=O)O)C(=O)N[C@@H](CCCCNC(=O)COCCOCCNC(=O)CCCCCCCCCCCCCCCc2nnn[nH]2)C(N)=O)NC(=O)[C@H](Cc2c[nH]c3ccccc23)NC(=O)[C@H](CCCNC(=N)N)NC(=O)[C@@H](Cc2ccccc2)NC(=O)[C@H](Cc2c[nH]cn2)NC1=O
Question: With B4 as the binder, how does the Ki read?
Answer: Its Ki is 179 nM.

Question: Ac-EH[dF]RW[Orn]PPDK(biscarboxymethyl)K(X3)-NH2 (lactam 1-6) was tested. Which Ki did it give?
Answer: The Ki was 64 nM.

Question: Which Ki does the source give for Ac-EQ[dF]RW[Orn]PPRDK(biscarboxymethyl(3))K([AEEA-Palmitoyl(16-(5-tetrazolyl))])-NH2 (lactam 1-6) here?
Answer: Its Ki is 58 nM.

B5: Ac-c[Orn-His-D-Phe-Arg-Trp-Glu]-Pro-Ser-Lys-Glu-Glu-Ser-Ser-Glu-Lys({2-[2-(16-carboxyhexadecanoylamino)ethoxy]ethoxy}acetyl)-NH2 (peptide)
peptide: Ac-[Orn]H[dF]RWEPSKEESSEK([AEEA-C17 diacid])-NH2
modifications: lactam 1-6
SMILES: CC(=O)N[C@H]1CCCNC(=O)CC[C@@H](C(=O)N2CCC[C@H]2C(=O)N[C@@H](CO)C(=O)N[C@@H](CCCCN)C(=O)N[C@@H](CCC(=O)O)C(=O)N[C@@H](CCC(=O)O)C(=O)N[C@@H](CO)C(=O)N[C@@H](CO)C(=O)N[C@@H](CCC(=O)O)C(=O)N[C@@H](CCCCNC(=O)COCCOCCNC(=O)CCCCCCCCCCCCCCCC(=O)O)C(N)=O)NC(=O)[C@H](Cc2c[nH]c3ccccc23)NC(=O)[C@H](CCCNC(=N)N)NC(=O)[C@@H](Cc2ccccc2)NC(=O)[C@H](Cc2c[nH]cn2)NC1=O
Question: Which Ki does the source give for B5 here?
Answer: The Ki was 38 nM.

Question: Ac-EH[dF]RW[Orn]PPDK(biscarboxymethyl)K(X6)-NH2 (lactam 1-6) was tested. Which Ki did it give?
Answer: Its Ki is 8.6 nM.

B6: Ac-c[Glu-His-D-Phe-Arg-Trp-Lys]-Pro-Pro-Arg-Asp-Lys(biscarboxymethyl)-Lys[(2-{2-[16-(tetrazol-5-yl)hexadecanoylamino]ethoxy}ethoxy)acetyl]-NH2 (peptide)
peptide: Ac-EH[dF]RWKPPRD[Lys(CH2CO2H)2]K([AEEA-Palmitoyl(16-(5-tetrazolyl))])-NH2
modifications: lactam 1-6
SMILES: CC(=O)N[C@H]1CCC(=O)NCCCC[C@@H](C(=O)N2CCC[C@H]2C(=O)N2CCC[C@H]2C(=O)N[C@@H](CCCNC(=N)N)C(=O)N[C@@H](CC(=O)O)C(=O)N[C@@H](CCCCN(CC(=O)O)CC(=O)O)C(=O)N[C@@H](CCCCNC(=O)COCCOCCNC(=O)CCCCCCCCCCCCCCCc2nnn[nH]2)C(N)=O)NC(=O)[C@H](Cc2c[nH]c3ccccc23)NC(=O)[C@H](CCCNC(=N)N)NC(=O)[C@@H](Cc2ccccc2)NC(=O)[C@H](Cc2c[nH]cn2)NC1=O
Question: How did the Ki turn out when B6 was run?
Answer: Its Ki is 24 nM.

Question: How did the Ki turn out when Ac-EH[dF]RW[Dap][Hyp][Hyp]RDK(biscarboxymethyl(3))K([AEEA-Palmitoyl(16-(5-tetrazolyl))])-NH2 (lactam 1-6) was run?
Answer: Its Ki is 17 nM.

Question: Ac-EH[dF]RW[Dab][Hyp][Hyp]RDK(biscarboxymethyl(3))K([AEEA-Palmitoyl(16-(5-tetrazolyl))])-NH2 (lactam 1-6) was tested. Which Ki did it give?
Answer: Its Ki is 105 nM.

B7: Ac-c[Orn-His-D-Phe-Arg-Trp-Glu]-Pro-Ser-Ser-Ser-Glu-Glu-Ser-Ser-Lys({2-[2-(16-carboxyhexadecanoylamino)ethoxy]ethoxy}acetyl)-NH2 (peptide)
peptide: Ac-[Orn]H[dF]RWEPSSSEESSK([AEEA-C17 diacid])-NH2
modifications: lactam 1-6
SMILES: CC(=O)N[C@H]1CCCNC(=O)CC[C@@H](C(=O)N2CCC[C@H]2C(=O)N[C@@H](CO)C(=O)N[C@@H](CO)C(=O)N[C@@H](CO)C(=O)N[C@@H](CCC(=O)O)C(=O)N[C@@H](CCC(=O)O)C(=O)N[C@@H](CO)C(=O)N[C@@H](CO)C(=O)N[C@@H](CCCCNC(=O)COCCOCCNC(=O)CCCCCCCCCCCCCCCC(=O)O)C(N)=O)NC(=O)[C@H](Cc2c[nH]c3ccccc23)NC(=O)[C@H](CCCNC(=N)N)NC(=O)[C@@H](Cc2ccccc2)NC(=O)[C@H](Cc2c[nH]cn2)NC1=O
Question: B7 was tested. Which Ki did it give?
Answer: Its Ki is 25 nM.

B8: Ac-c[Orn-Glu-His-D-Phe-Arg-Trp-Gly-Asp]-Pro-Ser-Lys-Glu-Glu-Ser-Ser-Lys({2-[2-(16-carboxyhexadecanoylamino)ethoxy]ethoxy}acetyl)-NH2 (peptide)
peptide: Ac-[Orn]EH[dF]RWGDPSKEESSK(X4)-NH2
modifications: lactam 1-8
SMILES: CC(=O)N[C@H]1CCCNC(=O)C[C@@H](C(=O)N2CCC[C@H]2C(=O)N[C@@H](CO)C(=O)N[C@@H](CCCCN)C(=O)N[C@@H](CCC(=O)O)C(=O)N[C@@H](CCC(=O)O)C(=O)N[C@@H](CO)C(=O)N[C@@H](CO)C(=O)N[C@@H](CCCCNC(=O)COCCOCCNC(=O)CCCCCCCCCCCCCCCC(=O)O)C(N)=O)NC(=O)CNC(=O)[C@H](Cc2c[nH]c3ccccc23)NC(=O)[C@H](CCCNC(=N)N)NC(=O)[C@@H](Cc2ccccc2)NC(=O)[C@H](Cc2c[nH]cn2)NC(=O)[C@H](CCC(=O)O)NC1=O
Question: B8 was tested. Which Ki did it give?
Answer: The Ki was 125 nM.
